Data taken from the supplement of paper PMC12764529.
± gives the half width of the 95% confidence interval.

Assay: folding stability dG unfold from trypsin proteolysis; higher = more stable
Procedure: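 Folding stability of de novo designed mini-proteins (<80 aa, no Cys; designed by TrROS, TrMRF, ProteinMPNN and the joint model) was measured by cDNA display proteolysis with trypsin and chymotrypsin. Each protease was used at 11 concentrations in a threefold dilution series plus a no-protease condition. K50 was inferred by Bayesian fitting of sequencing counts, and dG unfold was derived against a sequence-predicted unfolded-state K50 (Tsuboyama et al. method). Sequences shown include variable-length N-terminal GS-type padding (SAGGSAGG...) inside a display construct carrying a PA tag. Rows were kept only if the AF2 dimer inter-PAE was >15, to exclude likely homo-oligomers.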

| Sequence | folding stability dG unfold |
| --- | --- |
| SAGGSAMIRTFNIKFPGKSEEEALEAIKNLPEEVTEKIEEVKVEEIKKEGDSIYVKLTIKVPKEILSAGGSA [r15_244_JUSTAS] | 2.66 ± 0.795 kJ/mol |
| SAKVFTAEEIKALAEELEKAGLEVEAVVLDKDGKIVAVAPKELLKPPPVEEVKEVKVEVEDDPEKLKAAKSA [r9_568_TrROS_Hall] | -1.85 ± 4.06 kJ/mol |
| SAGGSAGGSAGGSMAVPQTVEVEAGAKPILVTTYRLPPDGAVVRIEYPGPAVVLEEELESAGGSAGGSAGGS [r10_630_JUSTAS] | -1.86 ± 0.837 kJ/mol |
| SAGGNVEIERNPDGMITVEFPMKSPEQAIEEVKNFLQQQGWKIKDIPVERPPNGWVKITIPIKPPGASAGGS [r8_253_TrROS] | 1.42 ± 0.238 kJ/mol |
| SAGGSDYVGRVQIDKVDPEDPGQVRINLEWWQPNGKAIPIEHTIPNEQLKNNPPDATIEFKMEPPPSAGGSA [r2_128_TrROS] | -2.15 ± 1.34 kJ/mol |
| SAGGMLLYEKTVTSSPDDEALKLAKEIEEKLTPPDYITKIKVEVTPLPNGTYKVTIPIEILPPGYPKSAGGS [r16_128_JUSTAS] | -0.114 ± 0.318 kJ/mol |
| SAGGPVIKIPIEIMMPNNDLNKFANEIAKELQDDGYKVKINPIEFEPQRDPDGKPDYVHFRATVEVQPSAGG [r13_707_TrROS] | -0.954 ± 0.753 kJ/mol |
| SAGGSAGGSAGPPIYWRIEFENPGKKHTMTIPRDMPVDDIKEIADEIAKRFPMPISIEPVSAGGSAGGSAGG [r11_515_TrROS] | -1.4 ± 0.92 kJ/mol |
| SAGGSSMEELIKAVLEAAEAGKKAVNVKMPLPDGGEIEILDGGVIRIIPPDGVPLEEKIPVSELILSAGGSA [r2_97_JUSTAS] | 1.85 ± 0.184 kJ/mol |
| SAGGSAGGSAGGSGAEEAAKAVREAFPELGVPILVEVGYIPGTKELPVRVYIPSTRLELSAGGSAGGSAGGS [r4_312_TrMRF] | -1.23 ± 0.23 kJ/mol |
| SAGGPMKVQVAVWRRDPDNGEPKEVEIPMTWDNIRELLDDIPPDGRYMVKIHSPGQPQTIPLEDLKELSAGG [r13_254_TrROS] | 0.639 ± 1.76 kJ/mol |
| SAMTTLEKEGDVTITRTKLPDGTVVVTTEVPESRPLAELTTETITIYPDGTVTTTSQTLTLDPATGRLGSAG [r14_724_JUSTAS] | -0.61 ± 0.314 kJ/mol |
| SAGGMTFVKVKPAPVKFGEGDKEYWVVEIVKVLEVEDVGEKPVVKAEKETIIIPKDNPDALKEAGIDASAGG [r13_670_TrMRF] | -4.28 ± 0.92 kJ/mol |
| SAGGSAGGSAGMKVVLTVPESEAAKPEVLEAKAQEIKEKHPGEEVEVEFITNPFPPGTPLSAGGSAGGSAGG [r11_743_JUSTAS] | 1.91 ± 0.0795 kJ/mol |
| SAGGSAGGSAGGSIEIDVNPEAGQLKIEIEMPMPNPNGKPRGPMRMEQEFRIDDPEDIKSAGGSAGGSAGGS [r4_10_TrROS] | -2.68 ± 1.38 kJ/mol |
| SMVKAKVEVNPETNAAVVEFELPELKVIALRVFDENNEVHTLVEVEIPPGPRVPLAEIPLKPNEELVLPLSA [r9_1172_TrMRF] | 0.383 ± 1.09 kJ/mol |
| SAGGSAGGSAGGSGNFDKDGNKLTVYYPNTKKPVTIDFPVEDIFEFIKNLPPNVAKVDASAGGSAGGSAGGS [r4_282_TrMRF] | -0.84 ± 0.205 kJ/mol |
| SSPGLVEVTIPLKIVLEPLAPDGTPAPRPVATVPIKTAASSEDPSAIEQAKEDVIKELKPEFPDAKFVVESA [r9_1112_JUSTAS] | 0.932 ± 0.272 kJ/mol |
| SAGGPNIEIEQERHPDDGMWTINVKWDNPAEIVEEIAKEIREQNRDIPIMITGPDGNPIMIPLDDIRSAGGS [r8_236_TrROS] | 0.741 ± 0.205 kJ/mol |
| SAGGSAGGSAGGKKTIWIPVKIEPVPDGVRIKFPDGNPIIIPPNHKVEHTPGWMRITLDSAGGSAGGSAGGS [r10_305_TrROS] | -1.23 ± 0.753 kJ/mol |
| SAGGSAGGSAGGMENGKIEIYKKEKDTFIAKINNGDKVIIIEKIKSIEELKEALIELGYGSAGGSAGGSAGG [r7_91_TrMRF] | 2.21 ± 0.121 kJ/mol |
| SAGGSAGGSMEIVSTGSKEDAEEAVKEKVAAGEKARVVLRSPTDPTPVSEEEVTISEEELKEASAGGSAGGS [r12_241_JUSTAS] | -6.74 ± 3.68 kJ/mol |
| SEALILDPNVETVSPVFYLLLSPEEAEERARELREELRAELEAAGLPLPEDVVIEVVPAESEEELRALLESA [r9_204_JUSTAS] | 2.09 ± 0.205 kJ/mol |
| SAGGSAGGSAGPKPIEFEDPDNGRKIEYWPEENQISIENPGDGKEKEYPMDSPEELKEWMSAGGSAGGSAGG [r11_936_TrROS] | 0.49 ± 0.711 kJ/mol |

| Sequence | folding stability dG unfold |
| --- | --- |
| SAGSMEVKVEIPEEVLKKIESAPPGTVVEYTETVTITTTTTIPGPGNPVPLTSTTPSPIKLTYTKPSSPSAG [r5_946_JUSTAS] | -2.54 ± 0.251 kJ/mol |
| SAGGSAGGSAGPMIKIGSTTRPFTPPLGGRLEYAPIDVDQSEEVAKEVAEELKPKGVIVNLSAGGSAGGSAG [r3_157_JUSTAS] | -3.24 ± 1.46 kJ/mol |
| SAGGSAGGSAGGWVFDSDDYPKFQDAAKDHGLKPKSINDDDNTMTVDPEDPNRIRDAINESAGGSAGGSAGG [r7_285_TrROS] | -0.614 ± 0.879 kJ/mol |
| SAGMSSSEVIDIDAGPEKLKELVAKIKKESPNYTIVVTDPETGKPTLLDPSELKNIPGPVKLTITKYPQSAG [r5_437_JUSTAS] | -4.86 ± 2.76 kJ/mol |
| SAGGSAGGSEGQPIIIKIKMENPGNGKKHKFDIMVPPGFKNAEEQANRLMNNFGPVKDVEIYPSAGGSAGGS [r12_942_TrROS] | -3.54 ± 1.26 kJ/mol |
| SAGGSAGGSAGGGENVTTEEKVLEVSYDPSKNSYSTLVKVTVKYPNGTTEEFEVVEEKLSAGGSAGGSAGGS [r10_1214_JUSTAS] | 1.4 ± 0.176 kJ/mol |
| SAGGSAGGSETSIVFLEEEVLVEEEITLYRDGTPTRERRVRTERVVIRVPVKPEEDVNNPLLLSAGGSAGGS [r12_713_JUSTAS] | -3.2 ± 3.43 kJ/mol |
| SARPLTIMNPDGMMYRLDPDEGEIEFQNASDGEELKIKVKPKGNGVEIDIEFNGQPHEHKIPKGDWIMIPSA [r9_239_TrROS] | 2.77 ± 0.368 kJ/mol |
| SAGGSAGGSAGTSTTVTEKPDPNSNRTYTTTTVERTTADGTTTTVTTTVYPDSTTSTTTASAGGSAGGSAGG [r11_987_JUSTAS] | 2.33 ± 0.393 kJ/mol |
| SAGGSAGGSAGGMPVEVTEVASVTTLPNGTTKITIKTPTGTVTFDDPSKIPSSILKLLSSAGGSAGGSAGGS [r10_748_JUSTAS] | 2.94 ± 0.0586 kJ/mol |
| SAGGSAGGSAGSKTITFIMVHPDDGYISDMEMRYTDNGIEMEMEWIPVPKEDAEELKDLISAGGSAGGSAGG [r11_47_TrROS] | 0.942 ± 0.151 kJ/mol |
| SAGGSAVPPSANVGPLKEKIEVTEDPEKGTKTYTRVLKDPATGKTIVETSVIPPDGSVTLVKTVLVSAGGSA [r15_146_JUSTAS] | -0.0653 ± 0.305 kJ/mol |
| SAMKTTETITVTVEMEPEVAEEVAEEIAEKIEKEKNYEITEVKVSVFPTDGKYVVRVPIKITYPTPELKSAG [r14_219_JUSTAS] | -3.23 ± 1.76 kJ/mol |
| SAGGSAGGSAKITITAPPGETYRIKVKVKNENGEWKEVTRTIKVGEPLEDIEEVEIERIEPESAGGSAGGSA [r18_223_TrROS_Hall] | 0.193 ± 0.502 kJ/mol |
| SAGGGMSTPVGVDSKLTEVREDTETGLITTTSVYRAGSEVTTVTESRPLGNPEDVTTLETTTTPASASAGGS [r16_89_JUSTAS] | 0.17 ± 0.172 kJ/mol |
| SAGGSAGGSAMIVVTLDDPEEAREAVRARFGPEVEITPLETTTVGDRVFTKIAVRVPPELASAGGSAGGSAG [r3_87_JUSTAS] | -1.47 ± 0.795 kJ/mol |
| MHKVEHTIKHPGYEIKIEVTMYPNPNGNYYVPIKIEREDPKDNKPKKKPIMVPFPPGDPDDFVDWALEEILS [r1_171_TrROS] | -0.792 ± 0.711 kJ/mol |
| SAGMTTETTEKTAPDGKTRTTTVTYPSEEKAADTTTVVVTETPVETDGSERILTTTTVYKNGVKVATTGSAG [r14_958_JUSTAS] | -3.56 ± 2.34 kJ/mol |
| SMPKVVKTVKITKSEAKEFLEKLDIGPDKSVTILETDPNGKSSLHTIGPNKILSSEPVDTLPNTWTIEISSA [r9_849_JUSTAS] | -0.325 ± 0.544 kJ/mol |
| SAGGSAGGSSSPEEIKAEFKKKGYPKVEVKPVTPDTYLVTVTSPGTGKTTEYPITGSPSGKGLSAGGSAGGS [r12_170_JUSTAS] | -3.44 ± 1.46 kJ/mol |
| DWKTRTVMFPVPPGDLEEAKDRAKELAKELPPGNKIEIEMPNPDGHYFMVTVTVDPNGEIDIDVSPGMRPIS [r1_350_TrROS] | -1.75 ± 1.21 kJ/mol |
| SAGGSAGGSAGGSSTITIGDSEVSVTADPKAPVATASYPASGVTFTITRPDASVTITPTPSAGGSAGGSAGG [r7_156_JUSTAS] | -3.28 ± 1.76 kJ/mol |
| SAGGSSMLSPSESLPLPPDEDVEVSLPSPLSAKLTYDPATGTVSVTVTDPNNPGVPLSSTTRPLTASAGGSA [r2_266_JUSTAS] | 2.77 ± 0.155 kJ/mol |
